Patent US6207419A, “Thrombin inhibitory agents and methods of using same” (The University of North Carolina at Chapel Hill, priority 1999, dated 2001)

Columns and labels:
[1] = target: T1, plasma purified α-thrombin (Homo sapiens, UniProt P00734); test: Thrombin inhibition in the presence of glycosaminoglycans (heparin or dermatan sulfate); assay type: biochemical; conditions: heparin at optimal concentration
T1 construct: Human α-thrombin, HCII, and ATIII were purified in our laboratory from plasma; from tissue; host or cells: human plasma (purified in the authors' laboratory)
Protocol: Protease inhibition rates were determined as described previously (Rogers, S. J., Pratt, C. W., Whinna, H. C., and Church, F. C. (1992) J. Biol. Chem. 267(6), 3613-3617; Whinna, H. C., Choi, H. U., Rosenberg, L. C., and Church, F. C. (1993) J. Biol. Chem. 268, 3920-3924; Ciaccia, A. V., Cunningham, E. L., and Church, F. C. (1995) Protein Express. Purific. 6, 806-812; Ciaccia, A. V., Willemze, A. J., and Church, F. C. (1997) J. Biol. Chem. 272(2), 888-893). All assays were performed at room temperature in 96-well microtiter plates previously coated with 2 mg/mL BSA.
In the presence of glycosaminoglycans, 5 nM rHCII (wt, CHis6, CHis5 Pro, L444R, or L444R-CHis6) was incubated with 0.5 nM thrombin and 0-1 mg/mL heparin or 0-4 mg/mL dermatan sulfate or 10 nM rATIII (wt or CHis6) was incubated with 1 nM thrombin or factor Xa and 0-1 mg/mL heparin in the presence of 2 mg/mL BSA in HNPN, pH 7.4.
(§1) Residual thrombin activity was measured with 150 μM GlyProArg-NA and 1 mg/mL pB in the absence of glycosaminoglycan, 2 mg/mL pB in the presence of heparin and 4 mg/mL in the presence of dermatan sulfate. Residual factor Xa activity was measured with 500 μM Spectrozyme FXa and 2mg/mL pB in the presence or absence of glycosaminoglycan. Residual chymotrypsin activity was measured with 150 μM AlaAlaProPhe-NA and residual trypsin activity was measured with 150 μM GlyProArg-NA. Substrate cleavage was measured by color development at 405 nM on a Vmax Kinetic Microplate Reader (Molecular Devices).
Assays were performed at least in triplicate on two or more recombinant protein preparations. All inhibition studies were measured under pseudo-first order conditions where inhibitor [I] is at least ten-fold higher than enzyme (protease) [E], and second-order rate constants were calculated as described previously (Ciaccia, A. V., Cunningham, E. L., and Church, F. C. (1995) Protein Express. Purific. 6, 806-812; Ciaccia, A. V., Willemze, A. J., and Church, F. C. (1997) J. Biol. Chem. 272(2), 888-893).

[2] = Heparin-Sepharose affinity chromatography; assay type: binding; conditions: NaCl gradient, 20 mM Hepes pH 7.4
Protocol: 100 μL of each fraction was aliquoted onto a 96-well microtiter plate and ELISA was performed. The peak elution ionic strength was determined by plotting 405 nm color development and NaCl concentration against the fraction number. All samples were run at least in triplicate using two or more protein preparations. Recombinant ATIII samples were run similarly to the HCII samples, except the elution gradient was run from 50 mM to 2 M NaCl.

α-thrombin = target: T2, α-thrombin (Homo sapiens, UniProt P00734); test: Effect of hirugen on thrombin inhibition in the absence of glycosaminoglycan; assay type: biochemical
T2 construct: Human α-thrombin, HCII, and ATIII were purified in our laboratory from plasma; from tissue; host or cells: human plasma (purified in the authors' laboratory)
Protocol: as §1, with “GlyProArg-NA.” for “GlyProArg-NA. Substrate cleavage was measured by color development at 405 nM on a Vmax Kinetic Microplate Reader (Molecular Devices).”
Assays were performed at least in triplicate on two or more recombinant protein preparations.

thrombin = conditions: cited from earlier work
[3] = target: T1, plasma purified α-thrombin; conditions: value printed with literature reference; cited from earlier work

maximal rate of thrombin inhibition in the presence of heparin [1]: 1.93±0.38×10^8 M^-1 min^-1
effect of hirugen on thrombin inhibition, in words (α-thrombin; hirugen 20 μM, absence of glycosaminoglycan): less of an effect
rate constant of inhibition (k2) in the absence of peptide (α-thrombin; no hirugen, no control peptide, FIG. 5): 31200 M⁻¹ s⁻¹
B1: rHCII-L444R: Recombinant HCII with mutation at the reactive site residue P1 (L444R) (protein, UniProt P05546 20-499, looked up, variant L444R)
Heparin cofactor 2: GSKGPLDQLEKGGETAQSADPQWEQLNNKNLSMPLLPADFHKENTVTNDWIPEGEEDDDYLDLEKIFSEDDDYIDIVDSLSVSPTDSDVSAGNILQLFHGKSRIQRLNILNAKFAFNLYRVLKDQVNTFDNIFIAPVGISTAMGMISLGLKGETHEQVHSILHFKDFVNASSKYEITTIHNLFRKLTHRLFRRNFGYTLRSVNDLYIQKQFPILLDFKTKVREYYFAEAQIADFSDPAFISKTNNHIMKLTKGLIKDALENIDPATQMMILNCIYFKGSWVNKFPVEMTHNHNFRLNEREVVKVSMMQTKGNFLAANDQELDCDILQLEYVGGISMLIVVPHKMSGMKTLEAQLTPRVVERWQKSMTNRTREVLLPKFKLEKNYNLVESLKLMGIRMLFDKNGNMAGISDQRIAIDLFKHQGTITVNEEGTQATTVTTVGFMPRSTQVRFTVDRPFLFLIYEHRTSCLLFMGRVANPSRS
Heparin-Sepharose [NaCl], peak elution concentration [2]: 350 mM
increase of the rate of thrombin inhibition compared to wt-rHCII (thrombin; absence of glycosaminoglycan, earlier publications): ~2 orders of magnitude
rate of thrombin inhibition in the absence of glycosaminoglycan (thrombin; value printed with literature reference): 1.3±0.30×10^6 M^-1 min^-1
maximal rate of thrombin inhibition in the presence of dermatan sulfate [3]: 2.84±0.24×10^6 M^-1 min^-1
